Measurements taken from EP4537907A1.

Target: recombinant human CD248 (internally produced) (human) (UniProt Q9HCU0)
Test: competition ELISA: non-purified Fab E. coli supernatant mixed 1:1 with biotinylated human CD248, added to immobilised human IGFBP5, Streptavidin-HRP

recombinant human CD248 (internally produced) (human), sequence (Q9HCU0 18-687 limits assumed): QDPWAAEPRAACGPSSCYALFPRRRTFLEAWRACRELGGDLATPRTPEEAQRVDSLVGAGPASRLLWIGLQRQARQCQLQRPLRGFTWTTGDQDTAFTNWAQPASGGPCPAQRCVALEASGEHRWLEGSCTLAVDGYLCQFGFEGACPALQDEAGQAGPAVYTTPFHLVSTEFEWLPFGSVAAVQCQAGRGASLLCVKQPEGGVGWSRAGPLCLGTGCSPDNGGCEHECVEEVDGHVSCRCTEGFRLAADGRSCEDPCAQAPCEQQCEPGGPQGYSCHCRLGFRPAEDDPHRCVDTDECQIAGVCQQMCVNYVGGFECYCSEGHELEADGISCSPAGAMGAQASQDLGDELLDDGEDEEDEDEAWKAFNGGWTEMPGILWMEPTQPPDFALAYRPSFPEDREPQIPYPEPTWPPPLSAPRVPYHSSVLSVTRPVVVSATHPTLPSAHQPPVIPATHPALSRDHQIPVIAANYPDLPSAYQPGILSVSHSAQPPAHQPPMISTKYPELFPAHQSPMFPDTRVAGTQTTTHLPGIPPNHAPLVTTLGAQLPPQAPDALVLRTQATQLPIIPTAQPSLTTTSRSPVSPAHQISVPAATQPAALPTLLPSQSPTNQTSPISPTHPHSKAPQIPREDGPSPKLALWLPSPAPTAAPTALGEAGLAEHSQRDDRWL

fold inhibition of CD248-IGFBP5 binding over the negative control antibody (Palivizumab): > 10 fold
B1: YU1023-A02 Fab (Fab, V domains shown)
VH: QVQLVESGPGLVKPSQTLSLTCTVSGGSISSGGYYWSWIRQHPGKGLEWIGYIYYSGSTYYNPSLKSRVTISVDTSKNQFSLKLSSVTAADTAVYYCARVRGRSATYFDYWGQGTTVTVSS
VL: QSVLTQPPSVSGAPGQRVTISCTGSSSNIGAGYDVRWYQQLPGTAPKLLIYANNNRPSGVPDRFSGSKSGTSASLAITGLQTEDEADYYCQSYDISLSGSLFGGGTKLTVL
